The text below walks through data of patent US20090291439.

Akt1, sequence (P31749 whole entry): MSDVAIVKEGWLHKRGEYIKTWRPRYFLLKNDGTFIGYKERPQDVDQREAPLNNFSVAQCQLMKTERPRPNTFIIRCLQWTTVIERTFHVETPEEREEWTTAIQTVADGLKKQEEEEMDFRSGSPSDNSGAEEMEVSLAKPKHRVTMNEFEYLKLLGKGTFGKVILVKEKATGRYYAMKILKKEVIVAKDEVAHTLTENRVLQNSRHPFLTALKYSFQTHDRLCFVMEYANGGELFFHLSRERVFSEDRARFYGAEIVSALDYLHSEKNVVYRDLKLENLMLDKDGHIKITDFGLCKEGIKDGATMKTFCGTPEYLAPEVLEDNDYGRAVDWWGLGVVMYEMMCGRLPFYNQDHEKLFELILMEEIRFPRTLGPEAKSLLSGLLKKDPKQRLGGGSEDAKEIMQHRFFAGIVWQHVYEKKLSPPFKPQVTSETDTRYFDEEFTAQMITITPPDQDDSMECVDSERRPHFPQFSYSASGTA

B1: human DUSP13 protein (protein)
chain: MDSLQKQDLRRPKIHGAVQASPYQPPTLASLQRLLWVRQAATLNHIDEVWPSLFLGDAYAARDKSKLIQLGITHVVNAAAGKFQVDTGAKFYRGMSLEYYGIEADDNPFFDLSVYFLPVARYIRAALSVPQGRVLVHCAMGVSRSATLVLAFLMICENMTLVEAIQTVQAHRNICPNSGFLRQLQVLDNRLGRETGRF
In the case of B1, the “dephosphorylation of phosphorylated Ser-473 (FIG. 15, right, second panel from the top)” value in the series with Akt2 and in the series with Akt1 was “directly dephosphorylates the phosphorylated Ser-473 thereof” each time.
